Values of other authors as cited in article PMC4850115.

Biological target: p38 (Homo sapiens) (UniProt Q16539)
Chain of UniProt Q16539 (Q16539 2-360): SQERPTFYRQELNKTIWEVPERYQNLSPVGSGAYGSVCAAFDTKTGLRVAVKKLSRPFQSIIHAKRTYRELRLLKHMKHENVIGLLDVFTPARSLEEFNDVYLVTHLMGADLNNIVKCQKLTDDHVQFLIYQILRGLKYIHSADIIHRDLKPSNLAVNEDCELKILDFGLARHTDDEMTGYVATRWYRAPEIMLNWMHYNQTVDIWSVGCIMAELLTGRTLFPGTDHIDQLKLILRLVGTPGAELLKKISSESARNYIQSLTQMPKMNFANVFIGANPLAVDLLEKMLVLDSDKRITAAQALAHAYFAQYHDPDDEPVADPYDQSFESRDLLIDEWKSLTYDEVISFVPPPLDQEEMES

Substance: MK2 370-400 (from UniProt P49137)
- Kd: 20 nM
